# Reference: publication PMC12508155 (Nature Communications, 2025)
# B1: MgdH (Vreelandella boliviensis LC1) (protein)
# chain: MSQASNDLRLADFQAIPVIDIGDLLSGDLNARKAVAEQLGRAAREVGFFQMVGHGINPSLRQGLINQAKRFFAQPTETKMERYIGLYHHHRGYVPPGEESPDPNNPDMKEAFDLAFELPSDDPDVLAGTALLGPNPWPALEGFRQPVAAYYDAAYQVGRALMGGFALALGHEESHFLHHVTKPPSQLRLIHYPYNPDAEDAQGIGAHTDYECFTLLLPTAPGLEVMNGAGEWIDVPFRDDALVVNIGDMLEIWSNGEFVATSHRVRKVKEERYSFPLFFACDYHTVVAPLPELVKRHGQAFYPPLKAGDHLYAQTIQTFNYLRERLARGEIALPDGAREVGSLGQHGKHKETP
# notes: full length, N-terminal 6xHis tag with TEV site (cleavage not mentioned), expressed in E. coli BL21, 41 kDa
# Columns and labels:
# [1] = system: Gd-II riboswitch (guanidine class II riboswitch) (RNA, riboswitch) GCCCUAGGGACGACCCUAGAAGGCCAAGCAACCUGCGGGACGACCCGC; test: in-line probing; details: 100 mM KCl, 20 mM MgCl2, 50 mM Tris-HCl pH 8.3, 25 °C, 40 h; for apparent KD: Hill fit, two binding sites
# MgdL = biological target: T1, MgdL (Vreelandella boliviensis, UniProt A0A265DXW6); test: LC-MS time course, coupled with MgdH; type: biochemical; details: N-(hydroxymethyl)guanidine formed in situ by MgdH from 0.5 mM methylguanidine with 5 mM 2-OG; MgdL 20 µg/mL
# T1 construct: gene CE457_11615; full length, N-terminal 6xHis tag with TEV site (cleavage not mentioned), expressed in E. coli BL21
# T1 sequence (A0A265DXW6 1-250): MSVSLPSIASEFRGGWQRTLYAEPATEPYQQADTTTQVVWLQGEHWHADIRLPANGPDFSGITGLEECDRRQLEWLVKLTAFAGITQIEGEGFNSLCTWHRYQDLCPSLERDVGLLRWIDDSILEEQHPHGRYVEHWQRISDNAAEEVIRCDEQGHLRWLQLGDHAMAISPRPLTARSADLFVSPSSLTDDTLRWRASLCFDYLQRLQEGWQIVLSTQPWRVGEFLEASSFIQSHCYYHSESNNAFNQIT
# [2] = substrate: O=C(O)CCC(=O)C(=O)O; test: oxygen consumption, Clark-type electrode; type: biochemical, Vreelandella boliviensis; details: methylguanidine fixed at 2.5 mM, Fe(II), ascorbate, MOPS pH 7.2, 30 °C
# [3] = substrate: CN(C)C(=N)N; test: oxygen consumption, Clark-type electrode; type: biochemical, Vreelandella boliviensis; details: 2-OG 5 mM, Fe(II), ascorbate, MOPS pH 7.2, 30 °C
# [4] = substrate: CNC(=N)N; test: oxygen consumption, Clark-type electrode; type: biochemical, Vreelandella boliviensis; details: 2-OG fixed at 10 mM (5 mM in Methods), Fe(II), ascorbate, MOPS pH 7.2, 30 °C
molecule,measurement,setting,value
N=C(N)N,apparent KD,[1],93 ± 6 µM
CN(C)C(=N)N,binding,"[1]; no conformational change, highest concentration not in material",no
CNC(=N)N,apparent KD,[1],83 ± 5 µM
N=C(N)NCO [N-(hydroxymethyl)guanidine],"LC-MS time course, coupled with MgdH",MgdL,its presence clearly accelerated the fragmentation of N-(hydroxymethyl)guanidine
B1,Km,[2],530 ± 50 µM
same,kcat,[2],20.5 ± 0.5 s⁻¹
same,Km,[3],250 ± 10 µM
same,kcat,[3],17.3 ± 0.2 s⁻¹
same,Km,[4],160 ± 10 µM
same,kcat,[4],19.6 ± 0.4 s⁻¹
